Laboratory results published in the nanobody polyreactivity screen of Harvey et al. (2022).

Assay: yeast display, Sf9 membrane polyspecificity reagent, FACS + sequencing; frameworks hold sequencing errors
In short: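 Using colony PCR, genes from sorted yeast display clones were amplified, then sequenced on MiSeq at 2 × 250 and filtered by CDR length. The clones had been stained with 10% biotinylated, detergent-solubilized Sf9 membrane reagent for 1 hour at 4 °C and sorted by FACS into low and high (top ~1%) gates on anti-HA and streptavidin fluorescence. Polyreactivity labels come from the gate of origin.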

Sequence: QVQLVESGGGLVQAGGSLRLSCAASGFIFIKYAMGWYRQAPGKERELVAAISSSGGSTYYADSVKGRFTISRDNAKNTVYLQMNSLKPEDTAVYYCAARGTWSRYGYWGQGTQVTVSS
- polyreactivity (PSR sort gate): high polyreactivity

Sequence: QVQLVESGGGLVQAGGSLRLSCAASGSIFEQYAMGGSRPAPGKERELVAAISKRGTSTYYADSVKGRFTISRDTPKNTVYLNMNSLKPEDTAVYYCAATNRWYYRAAADVYAFGYWGQGTQVTVSS
- polyreactivity (PSR sort gate): high polyreactivity

Sequence: QVQLVESGGGLVQAGGSLRLSCAASGFTFSTYAMGWYRQAPGKERECVAAISSGGTTNYADSVKGRFTISRDNAKNTVYLQMNSLKPEDSAVYYCAADWYRYYEYGAYGYWGQGTQVTLSS
- polyreactivity (PSR sort gate): low polyreactivity

Sequence: QVQLVESGGGLVQAGGSLRLSCAASGRIFYHYAMGWYRQAPGTERELVAAINSSGGSTHYADSVKGRFTISRDNAKNTVYLQMNSLKPVDTAVYYCAADGYWRDYSGYWDYYYIYDYWGQGTQVTVSS
- polyreactivity (PSR sort gate): low polyreactivity

Sequence: QVQLVESGGGLVQAGGSLRLSCAASGRIFDTNFIGWYRLAPGKERELVAANSQSGGITYYADSVKGRFTISRDNAKKTVYLQMNSLKPEDTAVYYCAKDTVTVSFNEYDYWGQGTQVTVSS
- polyreactivity (PSR sort gate): low polyreactivity

Sequence: QVQLVESGGGLVQAGGSLRLSCAASGRNFPTKAMGWYREAPGTERELVAAITRSGSTYYADSVKGRFTISRDNAKNTVYLQMNSLKPEDTAVYYCAAYAYIFLDWGGYPYYLYEYDDWGQGTQVTVSS
- polyreactivity (PSR sort gate): low polyreactivity

Sequence: QVQLVESGGALVQAGGSLRLSCAASGSTSYTNAMGLYRHAPGKEREFVASISLSAGSTYYADSVKGRFKISRDNAKNTVYLQMNSLKPEDTAVYYCASESVAILGLVYPKGYGYWGQGTQVTVSS
- polyreactivity (PSR sort gate): low polyreactivity

Sequence: QVQLVESGGGIVQAGGRHRLSCAASGRTFWRNPMGWYSPAPGKERELVASIRITGGSTYYADSVMGRFTISRDNAKTTVYLQMNSLNAEDTAVYYCPASSGIRFVGLSYPIGNYYYWGQGSQVTVSS
- polyreactivity (PSR sort gate): high polyreactivity

Sequence: QVQLVESGAGLVQAGGSLRLSCAASGLILGVYTMGWYRQAPGTEREFVASINYGGGSTYYADSVKGRFTISRDNAKNTVYLQMNSLKPEDTAVYYCNARSRWGGTRLYSYDYWGQGTKVTVSS
- polyreactivity (PSR sort gate): low polyreactivity

Sequence: QVQLVESGGGRVQAGGTHRLRSAASGFTFRQYAMGWYRPAPGKERELLAAISRSGSRTYYADSVKRRFTISRDNAKHTVYLQMNCLKPEDTAVYYCYAVFSTFTGEYYWGHGTQVTVSS
- polyreactivity (PSR sort gate): high polyreactivity

Sequence: HVRLQESGGGLVQAGGSLRQSCAASGAISPYYDMGWYRLAPGKEREFVASIAHGGTTYYADSVKGRFTTSRDNAKYNVYLRMNRLKPEDTAVYFCAAPKRYLGDYWGQGTQVTVSS
- polyreactivity (PSR sort gate): high polyreactivity

Sequence: QVQLVESGGGLVQAGGSLRLSCAASGGIFSFKAMGWYIQAPGKERELVAAITTRGGSTYYADSVKGRFTISRDNAKNTVYLQMNSLKPEDTAVYYCAAEGYEEFNWGQGTQVTVSS
- polyreactivity (PSR sort gate): low polyreactivity

Sequence: QVQLVESGGGLVQAGGSLRLSCAASGSTFTAYVMGWYRQAPGKERELVAAISSSGGRTYYADSVKGRFTISRDNAKNTVYLQMNSLKPEDTAVYYCAARSGPLAYDYWGQGTQVTVSS
- polyreactivity (PSR sort gate): high polyreactivity

Sequence: QVQLVESGGGLVQAGGSLRLSCAASGRIFWPYARGWYRPAPGKERELVAAITSGGSTYYADSVKGRFTISRDNAKNTVYLQMNSLKQEDTAVYYCAKLSSGVSVPVAYGGIKRYNSWGQGTQVTVSS
- polyreactivity (PSR sort gate): low polyreactivity

Sequence: QVQLVESGGGLVQAGGSLRLSCAASGIIFSDYDMGWYRQAPGKERELVAAISWSGGSTYYADSVKGRFTISRDNAKNTVYLQMNSLKPEDTAVYYCAVDSQRQVTSRDDYWGQGTQVTVSS
- polyreactivity (PSR sort gate): low polyreactivity

Sequence: QVQLVESGGGIVQAGGSLRISCAASGIIFQYYVMGWYRQAPGKESELVAAIEKSGGSTYYADSLKGRFTISRDYAKNTVYLQMNSLNPDDTAVYYCAATSYAHKYYGYFGAIKYEYWGQGTQVTVSS
- polyreactivity (PSR sort gate): low polyreactivity

Sequence: QVQLVESGGGLLQAGGSLRLSCAASGFTFHKNAMGWYRQAPGKERELVAAISRSGGRTYYADSVKGRFTISRDNAKNTVYLQMNSLKPEDTAVYYCNATPLLWAGYDYWGQGTQVTVSS
- polyreactivity (PSR sort gate): high polyreactivity

Sequence: QVQLVESGGGLVQAGGSLRLSCPASGNIFVYYAMGWSRQAHGKERELVAAITSDVSTYYADSVKGRFTISRDNAKNTVYLQMNSLKPEDTAVYYCATTGYGSYVIYWGQGTQVTVSS
- polyreactivity (PSR sort gate): low polyreactivity

Sequence: QVQLVESGGGLVQAGGSLRLSCAASGRTFGLYTMGWYRQAPGKERELVAAISRSGGSTYYADSVKGRFTISRDNAKNTVYLQMNSLKPEDTAVYYCATRRSFSDRYDYWGQGTQVTVSS
- polyreactivity (PSR sort gate): high polyreactivity

Sequence: QVQLVESGGGLVQAGGSLRLSCAASGSIFRAYAMGGYRQAPGKERELVAAINWTDGSTYYAASVKGRFTISRDYAKNTVYLQMNSLKPEDTAVYYCAKDSMARHNYWGQGTQVTVSS
- polyreactivity (PSR sort gate): low polyreactivity

Sequence: QVQLVESGGGLVQAGGSLRLSCAASGSTIYFNAMGRYRQAPGKERELAAGIRSSGGSTYYADSVKGRFTISRDNAKNTVYLQMISLKPEDTAVYYCAGVRYRELYWGQGTQVTVSS
- polyreactivity (PSR sort gate): high polyreactivity

Sequence: QVQLVESGGGLVQAGGSLRLSCAASGFTLARYAMGWYRQAPGKEREFVAAITNGGRTNYADSVKGRFTISRDNAKNTVYLQMNSLKPEDTAVYYCAARYRFGGIRRYNYWGQGTQVTVSS
- polyreactivity (PSR sort gate): high polyreactivity

Sequence: QVQLVESGGGLVQAGGSLRLSCAASGRTFWRYAMGWYRQAPGKERELVAAITSGGGSTYYADSVKGRFTISRDNAKNTVSLQMNSLKPEDTAVYYCNRAGRGRSFKGDYWGQGTQVTVSS
- polyreactivity (PSR sort gate): high polyreactivity

Sequence: QVQLVESGGGLVQAGGSLRLSCAASGIIFYGNAMGWYRQAPGKERELVAAITWSGGSTYYADSVKGRFTISRDNAKNTVYLQLTSLKPEDTAVYYCAADFLYGFYYWGQGTQVTVSS
- polyreactivity (PSR sort gate): low polyreactivity

Sequence: QVHLVESGGGLVPAGGSLRLSCPASGSIFYEYAMGWYRQPPGKERELVAAITVTSGSTYYADSVKGRFTISRDNAKNTVYLQMNSLKPEDTAVYYCASRIYHTYRFYYWGQGTQVTVSS
- polyreactivity (PSR sort gate): low polyreactivity

Sequence: QVQLVESGGGLVQAGGSLRLSCAASGIILPYYAMGWYRPAPGKEREFVATISSDGTSTYYADSVKGRFTISRDNAKNTVYLQMNSLKPEDTAVYYCDARIRQNPGGDNSWGQGTQVTVSS
- polyreactivity (PSR sort gate): low polyreactivity

Sequence: QVQLVESGGGLVQAGGSLRISCAASGFTFRANAMGWYRQAPGKEREVVAAISQSGGRTYYADSVKARFTISRDNAKNTVYLQMNSLKPEDTAVYDCAAPDSAKELYYRMDYWGQGTQVTVSS
- polyreactivity (PSR sort gate): high polyreactivity

Sequence: QVQLVESGGGLVQAGGSLRLSCAASGRTFLGNAMGWYRQAPGKERELVAAIRYSGGRTYYADSVKGRFTISRDNANNTVYLQMNSLKPEDTAVYYCAAELDGSNYPLDYWGQGTKVTVSS
- polyreactivity (PSR sort gate): low polyreactivity

Sequence: QVQLVESGGGLVQAGVSLRLSCAASGRTFTSYPMGLYRQAPGKERELVAAISSRGGSTSYADSVKGRLTISRDNANNTVYLQMNSLKEEDTAVYYCARRIRQQRFGGNYWGQGTQVTVSS
- polyreactivity (PSR sort gate): high polyreactivity

Sequence: QVQLVESGGGLVQAGGSLRLSCAASGRTFYLNAMGWYRQAPGKERELVATISYTGDTTYYADSVKGRFTISGDNALNTVYLQMNSLKPEDTAVYYCAALPSRPRGYDYWGQGTQVTVSS
- polyreactivity (PSR sort gate): high polyreactivity

Sequence: QVQLVESGGGLVQAGGSLRLSCAASGRIFRYYAMGWYRQAPGKERELVAAITQRGGSTYADSVKGRFTISRDNAKNTVYLQMNSLKPEDTAVYYCAYRGSFLYDYWGQGTQVTVSS
- polyreactivity (PSR sort gate): low polyreactivity

Sequence: QVQLVESGGGLVQAGGSLRLSCAASGFTFIYYAMGWYRQAPGKERELVAAINRGGNTYYADSVKGRFTISRDNAKNTVYLQMNSLKPEDTAVYYCNARSYRRGHYYWGQGTQVTVSS
- polyreactivity (PSR sort gate): high polyreactivity
